In patent publication US20250073334A1:

Target: CpG-ST-E2 nanoparticle (ST-E2 with CpG 1826 conjugated in the internal cavity) (Geobacillus stearothermophilus)
Experiment: SpyTag-SpyCatcher reaction, SDS-PAGE

SpyCatcher-H5 hemagglutinin construct
units of H5 conjugated per nanoparticle (units of H5 per nanoparticle): 17.1
